# Target: T1, UPAR-His recombinant protein (UniProt Q03405 23-303)
# T1 construct: range 23-303; Expressed in 293 cells, purified on Ni-NTA; Biotinylated in the uPA ELISA; also called UPAR-His antigen; biotinUPAR-His; not shown: C-terminal His tag
# Experiment: phage ELISA, plate coated with UPAR-His, HRP-anti-M13
# T1 sequence (Q03405 23-303 limits assumed): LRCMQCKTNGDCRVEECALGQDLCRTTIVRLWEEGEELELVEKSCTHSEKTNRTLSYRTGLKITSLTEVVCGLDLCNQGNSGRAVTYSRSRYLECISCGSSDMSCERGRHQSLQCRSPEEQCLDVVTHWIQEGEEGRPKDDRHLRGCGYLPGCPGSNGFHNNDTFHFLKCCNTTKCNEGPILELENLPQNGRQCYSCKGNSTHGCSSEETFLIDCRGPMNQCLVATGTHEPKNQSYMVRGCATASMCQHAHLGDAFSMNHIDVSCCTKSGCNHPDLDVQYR
row,Binder,S/N ratio
1,"phage mono clone 1-G2 (VHH, the phage coat fusion part is not described) VHH: QSQLAESGGGLVQPGGSLRLSCVASRFSLDAYAIAWFRQAPGKEREGVSCISSIGGRTNYADPVKGRFTISRDNAKNTAYLEMNSLQPEDTAVYYCAAVQRLFGPCLLSGGMDYWGKGTPVTVSS",> 5
2,"phage mono clone 3-H02 (VHH, the phage coat fusion part is not described) VHH: QLTLVESGGGLVQPGGSLRLSCAASEFTLDYYAIGWFRQAPGKEREGVSCISSSDGSTYYADSVKGRFTISRDNAKNTVYLQMNSLKPEDTAVYYCAIGGLLLLRLWERGNYEFDYWGQGTQVTVSS",> 5
3,"phage mono clone 3-G07 (VHH, the phage coat fusion part is not described) VHH: RLQLVESGGGLVQPGGSLRLSCAVSGKALDYYSIGWFRQAPRKQREGVSCISSSGGSTNYADSVKGRFTISRDNAKDTVYLQMNSLKPEDTADYYCAVVSTVLCGLGIYEYDYWGQGTLVTVSS",> 5
4,"phage mono clone 3-E06 (VHH, the phage coat fusion part is not described) VHH: EVQLVESGGGLVQAGGSLTLSCVASASGSILRLNAMGWYRQAPAKQRELVALITRDGSTNYPDSVKGRFTISRDNAKNTVYLQMSSLSPEDTAVYYCYVQNHYSNYWGQGTQVTVSS",> 5
5,"phage mono clone 1-F10 (VHH, the phage coat fusion part is not described) VHH: QVQLVESGGGLVQPGGSLRLSCAASGSILSIRAVGWYRQAPGKQRELVALITSDGTTHYALSVKGRFTISRDNAKTTVYLQMNSLKPEDTAVYYCNREDYARRYWGQGTQVTVSS",> 5
6,"phage mono clone 1-B4 (VHH, the phage coat fusion part is not described) VHH: QVQLVESGGGLVQPGGSLRLSCAASGFTLDYYAIGWFRQAPGKEREGVSCISSTGGSTNYADSVKGRFTISRDNAKNTVYLQMNSLKPEDTAVYYCAADTHYLTVCYDRLGFDYWGQGTQVTVSS",> 5
7,"phage mono clone 1-H8 (VHH, the phage coat fusion part is not described) VHH: QRQLVESGGGLVQPGGSLRLSCAVSEFTLDYYAIGWFRQAPGKEREGVSCISSSGGSTVYADSVKGRFTISADNAKNTVYLQMNSLKPEDTAVYYCAAGSLLLFRLCVSRLYEYDYWGQGTQVTVSS",> 5
8,"phage mono clone 1-F9 (VHH, the phage coat fusion part is not described; also called 1-F09) VHH: QSLLVESGGGLVQPGGSLRLSCAASGFSLDYYAIGWFRQAPGKEREEVSCISSGGGSTNYADSVKGRFTISRDNAKNTVYLQMNSLKPEDTAVYYCAAKRNFMLYLVQCPYEYDYWGQGTQVTVSS",> 5
9,"phage mono clone 1-G1 (VHH, the phage coat fusion part is not described) VHH: QVQLVESGGGLVQPGGSLRLSCAASGNSLRRYAIGWFRQAPGKEREGVVCISTVGGSSYYVDSVKGRFTISEDNVKNTAYLQMNSLEPEDTAVYYCAAANRLYCPAYGSAGYDYWGQGTQVTVSS",> 5
10,"phage mono clone 3-E09 (VHH, the phage coat fusion part is not described) VHH: AVQLVDSGGGLVQPGGSLRLSCAASGFTFSSYAMGWARQVPGKGLEWVSIIYRDGNTYYTDSVKGRFTISRDNAKNTVYLQMNSLKPEDTAVYYCAPVETVAARRRDYWGQGTQVNVSS",> 5
11,"phage mono clone 3-E10 (VHH, the phage coat fusion part is not described) VHH: AVQLVDSGGGLVQPGGSLRLSCAASGFTFSSYAMGWARQVPGKGLEWVSIIYRDGNTYYTDSVKGRFTISRDNAKNTVYLQMNSLKPEDTAVYYCAPVETVAARRRDYWGQGTQVNVSS",> 5
12,"phage mono clone 3-E03 (VHH, the phage coat fusion part is not described) VHH: AVQLVDSGGGLVQAGGSLRLSCAASGIRLSSNAMAWYRQAPGKQRGLVALITSDGTTNYVDSVKGRFTISRDNAKNTVYLQMNSLKPEDTAVYYCKREPYLSTRGYWGQGTQVTVSS",> 5
13,"phage mono clone 3-E04 (VHH, the phage coat fusion part is not described) VHH: QLRLVESGGGLVQPGGSLRLSCAASGFTLDYYDIGWFRQAPGKEREGVSCIGRISGDTDYAESVKGRFTASRDNAKNTVYLQMNSLKPEDTAVYYCAAERRFFGGGCRRSVDNMDSWGKGTLVTVSS",> 5
14,"phage mono clone 1-F1 (VHH, the phage coat fusion part is not described) VHH: EVQLAESGGGLVQPGGSLRLSCAASGFTFSSYTMSWVRQAPGKGLEWVSAIDSDGGVTSYADSVKGRFTISRDNAKNTLYLQMNSLKPEDTAVYYCANGGYCSGYGCYPRLLSQGTLVTVSS",> 5
15,"phage mono clone 1-H2 (VHH, the phage coat fusion part is not described) VHH: QVQLVESGGGLVQPGGSLRLSCAASGSTLDYYAIAWFRQAPGKGREGVSCISSSGGRTNYADSVKGRFTVSRDNVKNTVYLQMNSLKPEDTAVYNCAAGGDLSCYGTPTSIWQYDLWGQGTQVTVAS",> 5

# Target: T1, UPAR-His recombinant protein
# Experiment: SPR (BiaCore T200), UPAR recombinant protein immobilised on CM5 chip, antibody as mobile phase
Binder,Kd,koff,kon
"pcDNA3.4-SDAB20-7-26-2-3-H02-hFC (Fc fusion, Llama VHH fused in tandem with human IgG1 Fc, expressed in 293 cells, purified on protein A; not shown: human IgG1 Fc from vector pcDNA3.4-hIgG1-Fc2) QLTLVESGGGLVQPGGSLRLSCAASEFTLDYYAIGWFRQAPGKEREGVSCISSSDGSTYYADSVKGRFTISRDNAKNTVYLQMNSLKPEDTAVYYCAIGGLLLLRLWERGNYEFDYWGQGTQVTVSS",1.31 nM,0.000173 s⁻¹,132000 M⁻¹ s⁻¹
"pcDNA3.4-SDAB20-7-26-2-1-F9-hFC (Fc fusion, also called 1-F09; not shown: human IgG1 Fc from vector pcDNA3.4-hIgG1-Fc2) QSLLVESGGGLVQPGGSLRLSCAASGFSLDYYAIGWFRQAPGKEREEVSCISSGGGSTNYADSVKGRFTISRDNAKNTVYLQMNSLKPEDTAVYYCAAKRNFMLYLVQCPYEYDYWGQGTQVTVSS",1.49 nM,0.000101 s⁻¹,67600 M⁻¹ s⁻¹
"pcDNA3.4-SDAB20-7-26-2-3-E04-hFC (Fc fusion, Llama VHH fused in tandem with human IgG1 Fc, expressed in 293 cells, purified on protein A; not shown: human IgG1 Fc from vector pcDNA3.4-hIgG1-Fc2) QLRLVESGGGLVQPGGSLRLSCAASGFTLDYYDIGWFRQAPGKEREGVSCIGRISGDTDYAESVKGRFTASRDNAKNTVYLQMNSLKPEDTAVYYCAAERRFFGGGCRRSVDNMDSWGKGTLVTVSS",22.3 nM,0.00139 s⁻¹,62700 M⁻¹ s⁻¹
